Measured values taken from article PMC9481612, “Molecular architecture of the augmin complex” (Nature Communications, 2022).

T1: HAUS5 (human, UniProt O94927 1-633)
T1 construct: HAUS5, human; 633; also called H5; source: High5 insect cells, co-infected with baculoviruses; purified as part of the augmin octamer (StrepII-Trap, Superose 6)
T1 sequence (looked up): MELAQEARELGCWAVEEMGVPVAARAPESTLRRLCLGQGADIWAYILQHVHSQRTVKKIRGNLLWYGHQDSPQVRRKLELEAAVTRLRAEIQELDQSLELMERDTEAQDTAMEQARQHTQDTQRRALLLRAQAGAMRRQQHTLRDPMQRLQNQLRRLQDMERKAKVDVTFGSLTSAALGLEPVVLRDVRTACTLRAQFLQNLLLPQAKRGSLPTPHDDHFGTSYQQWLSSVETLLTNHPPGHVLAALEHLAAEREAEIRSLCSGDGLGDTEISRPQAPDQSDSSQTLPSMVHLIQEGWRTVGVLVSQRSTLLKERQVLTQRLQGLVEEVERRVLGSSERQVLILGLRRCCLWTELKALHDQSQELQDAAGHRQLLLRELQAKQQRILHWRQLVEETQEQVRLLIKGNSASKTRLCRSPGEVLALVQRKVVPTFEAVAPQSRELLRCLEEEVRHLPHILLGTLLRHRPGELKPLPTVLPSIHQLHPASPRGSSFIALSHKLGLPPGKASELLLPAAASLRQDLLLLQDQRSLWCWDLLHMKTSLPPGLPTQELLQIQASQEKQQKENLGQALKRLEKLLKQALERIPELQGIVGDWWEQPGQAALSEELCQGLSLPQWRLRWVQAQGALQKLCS

T2: HAUS6 N-terminal region (a.a. 1–432) (human, UniProt Q7Z4H7 1-432)
T2 construct: HAUS6, human, N-terminal region a.a; 1-432 (C-terminal region H6C, a.a. 433-955, deleted); also called H6N; H6 in augmin^ΔH6C; source: High5 insect cells, co-infected with baculoviruses; purified as part of the augmin^ΔH6C octamer (StrepII-Trap, Superose 6)
T2 sequence (looked up): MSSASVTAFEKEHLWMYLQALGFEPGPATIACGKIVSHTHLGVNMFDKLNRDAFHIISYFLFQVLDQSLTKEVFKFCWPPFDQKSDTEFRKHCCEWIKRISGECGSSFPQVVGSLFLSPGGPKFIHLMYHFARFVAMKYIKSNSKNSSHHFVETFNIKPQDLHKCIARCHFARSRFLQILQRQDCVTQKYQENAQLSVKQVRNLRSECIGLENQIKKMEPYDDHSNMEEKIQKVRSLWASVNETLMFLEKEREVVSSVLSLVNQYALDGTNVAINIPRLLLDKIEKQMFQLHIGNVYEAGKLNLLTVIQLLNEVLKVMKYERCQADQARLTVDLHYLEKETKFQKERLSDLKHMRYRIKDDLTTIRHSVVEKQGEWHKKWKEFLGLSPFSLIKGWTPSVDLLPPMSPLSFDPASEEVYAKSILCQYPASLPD

B1: HAUS3 (natural protein, human, UniProt Q68CZ6 1-603, looked up)
chain: MSCGNEFVETLKKIGYPKADNLNGEDFDWLFEGVEDESFLKWFCGNVNEQNVLSERELEAFSILQKSGKPILEGAALDEALKTCKTSDLKTPRLDDKELEKLEDEVQTLLKLKNLKIQRRNKCQLMASVTSHKSLRLNAKEEEATKKLKQSQGILNAMITKISNELQALTDEVTQLMMFFRHSNLGQGTNPLVFLSQFSLEKYLSQEEQSTAALTLYTKKQFFQGIHEVVESSNEDNFQLLDIQTPSICDNQEILEERRLEMARLQLAYICAQHQLIHLKASNSSMKSSIKWAEESLHSLTSKAVDKENLDAKISSLTSEIMKLEKEVTQIKDRSLPAVVRENAQLLNMPVVKGDFDLQIAKQDYYTARQELVLNQLIKQKASFELLQLSYEIELRKHRDIYRQLENLVQELSQSNMMLYKQLEMLTDPSVSQQINPRNTIDTKDYSTHRLYQVLEGENKKKELFLTHGNLEEVAEKLKQNISLVQDQLAVSAQEHSFFLSKRNKDVDMLCDTLYQGGNQLLLSDQELTEQFHKVESQLNKLNHLLTDILADVKTKRKTLANNKLHQMEREFYVYFLKDEDYLKDIVENLETQSKIKAVSLED
notes: HAUS3, human; 603; also called H3; source: High5 insect cells, co-infected with baculoviruses; purified as part of the augmin octamer (StrepII-Trap, Superose 6)
B2: HAUS8 (natural protein, human, UniProt Q9BT25 1-410, looked up)
chain: MADSSGRGAGKPATGPTNSSSAKKKDKRVQGGRVIESRYLQYEKKTTQKAPAGDGSQTRGKMSEGGRKSSLLQKSKADSSGVGKGDLQSTLLEGHGTAPPDLDLSAINDKSIVKKTPQLAKTISKKPESTSFSAPRKKSPDLSEAMEMMESQTLLLTLLSVKMENNLAEFERRAEKNLLIMCKEKEKLQKKAHELKRRLLLSQRKRELADVLDAQIEMLSPFEAVATRFKEQYRTFATALDTTRHELPVRSIHLEGDGQQLLDALQHELVTTQRLLGELDVGDSEENVQVLDLLSELKDVTAKKDLELRRSFAQVLELSAEASKEAALANQEVWEETQGMAPPSRWYFNQDSACRESGGAPKNTPLSEDDNPGASSAPAQATFISPSEDFSSSSQAEVPPSLSRSGRDLS
notes: HAUS8, human; 410; a.a; 1-138 and 340-410 are not seen in the cryo-EM map; also called H8; source: High5 insect cells, co-infected with baculoviruses; purified as part of the augmin octamer (StrepII-Trap, Superose 6)

Experiments:
HAUS5 = molecular target: T1, HAUS5; assay: cross-linking; purified augmin^ΔH6C with DSSO at 250:1, 500:1, 750:1 and 1000:1 molar ratio, 1 h on ice; trypsin in gel or in solution, LC-MS/MS, MetaMorpheus, 1% FDR; settings: both partners purified
[1] = molecular target: T2, HAUS6 N-terminal region (a.a. 1–432); assay: as above; settings: both partners purified

Binder | binding result (HAUS5) | binding result [1]
B1 | binds | 
B2 |  | binds
